In the assay the target is Fibronectin (UniProt P02751). The experiment in a line: SPR; BIAcore T100; FN covalently immobilised on CM5 chip; EF-Tu 0-10.0 μM injected in 10 mM HEPES, 150 mM NaCl, 3 mM EDTA, 0.005% P20, pH 7.4, 30 μL/min, 25°C; KD from equilibrium. (In SPR one partner is held on a chip, and binding of the other changes the refractive index at the surface.)

1 substance from publication PMC4130151 can be followed below.

Usually Kd stands for the equilibrium constant for the complex coming apart. The low end stands for a tighter complex, the high end for a looser complex.

Sequence of UniProt P02751 (P02751 32-2477): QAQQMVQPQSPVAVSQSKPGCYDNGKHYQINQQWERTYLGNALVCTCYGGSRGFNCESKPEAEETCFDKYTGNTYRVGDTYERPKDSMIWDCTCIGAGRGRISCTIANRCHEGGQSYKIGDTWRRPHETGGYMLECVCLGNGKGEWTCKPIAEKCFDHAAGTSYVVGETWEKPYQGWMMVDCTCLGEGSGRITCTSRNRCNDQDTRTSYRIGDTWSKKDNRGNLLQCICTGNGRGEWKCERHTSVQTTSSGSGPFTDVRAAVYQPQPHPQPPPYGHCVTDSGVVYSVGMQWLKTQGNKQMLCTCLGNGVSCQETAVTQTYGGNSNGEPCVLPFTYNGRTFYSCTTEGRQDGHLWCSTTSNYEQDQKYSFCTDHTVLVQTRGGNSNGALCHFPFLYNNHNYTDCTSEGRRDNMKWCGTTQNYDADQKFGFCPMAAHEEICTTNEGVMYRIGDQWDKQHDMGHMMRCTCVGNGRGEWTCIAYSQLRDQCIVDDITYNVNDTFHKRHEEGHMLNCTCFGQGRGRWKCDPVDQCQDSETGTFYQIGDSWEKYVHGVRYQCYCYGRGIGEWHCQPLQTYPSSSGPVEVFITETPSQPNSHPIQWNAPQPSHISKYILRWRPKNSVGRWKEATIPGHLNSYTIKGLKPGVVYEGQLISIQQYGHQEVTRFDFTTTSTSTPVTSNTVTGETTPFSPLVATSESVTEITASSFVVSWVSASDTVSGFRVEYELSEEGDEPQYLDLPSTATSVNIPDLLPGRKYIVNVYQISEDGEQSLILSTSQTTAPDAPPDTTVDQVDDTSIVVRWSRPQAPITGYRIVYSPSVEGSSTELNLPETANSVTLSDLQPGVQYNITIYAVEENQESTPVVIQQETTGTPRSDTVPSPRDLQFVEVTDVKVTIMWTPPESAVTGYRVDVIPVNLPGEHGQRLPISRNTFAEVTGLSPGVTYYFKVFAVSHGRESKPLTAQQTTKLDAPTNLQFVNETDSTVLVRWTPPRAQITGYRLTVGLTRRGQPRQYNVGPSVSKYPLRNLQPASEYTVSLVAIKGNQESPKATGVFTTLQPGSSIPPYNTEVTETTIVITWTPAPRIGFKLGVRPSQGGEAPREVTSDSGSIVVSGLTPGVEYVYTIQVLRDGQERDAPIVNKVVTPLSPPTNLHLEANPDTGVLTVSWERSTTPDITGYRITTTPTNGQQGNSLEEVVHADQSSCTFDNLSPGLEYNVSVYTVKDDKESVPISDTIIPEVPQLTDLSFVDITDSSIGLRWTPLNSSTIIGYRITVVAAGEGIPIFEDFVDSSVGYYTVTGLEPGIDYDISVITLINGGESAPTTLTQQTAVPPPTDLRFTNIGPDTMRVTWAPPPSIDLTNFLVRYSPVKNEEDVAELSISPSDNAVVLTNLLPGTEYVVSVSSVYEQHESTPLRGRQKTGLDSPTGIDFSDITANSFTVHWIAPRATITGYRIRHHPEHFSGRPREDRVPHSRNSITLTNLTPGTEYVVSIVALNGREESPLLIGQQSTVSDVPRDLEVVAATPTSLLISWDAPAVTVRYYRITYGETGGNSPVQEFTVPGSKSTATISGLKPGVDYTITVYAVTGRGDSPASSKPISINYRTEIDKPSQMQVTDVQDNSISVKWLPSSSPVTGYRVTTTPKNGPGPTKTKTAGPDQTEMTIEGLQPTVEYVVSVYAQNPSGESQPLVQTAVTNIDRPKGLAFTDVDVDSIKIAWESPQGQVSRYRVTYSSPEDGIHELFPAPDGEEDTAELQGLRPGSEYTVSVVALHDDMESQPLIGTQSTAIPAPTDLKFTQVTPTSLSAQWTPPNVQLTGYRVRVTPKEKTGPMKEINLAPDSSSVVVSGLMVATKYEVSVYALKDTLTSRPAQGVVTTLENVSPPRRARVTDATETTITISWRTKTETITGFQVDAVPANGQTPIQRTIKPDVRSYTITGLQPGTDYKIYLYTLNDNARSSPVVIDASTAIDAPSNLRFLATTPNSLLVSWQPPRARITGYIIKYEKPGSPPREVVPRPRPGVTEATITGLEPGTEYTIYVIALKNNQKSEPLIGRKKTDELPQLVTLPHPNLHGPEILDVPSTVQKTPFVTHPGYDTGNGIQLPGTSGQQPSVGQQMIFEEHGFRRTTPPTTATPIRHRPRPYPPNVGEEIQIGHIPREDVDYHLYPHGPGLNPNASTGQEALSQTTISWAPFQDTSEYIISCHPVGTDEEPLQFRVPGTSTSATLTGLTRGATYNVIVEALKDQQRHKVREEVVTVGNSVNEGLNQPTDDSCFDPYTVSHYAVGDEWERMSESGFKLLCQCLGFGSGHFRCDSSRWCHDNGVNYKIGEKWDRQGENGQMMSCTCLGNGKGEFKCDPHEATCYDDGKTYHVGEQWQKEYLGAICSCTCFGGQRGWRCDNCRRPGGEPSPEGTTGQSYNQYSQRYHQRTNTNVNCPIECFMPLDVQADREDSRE

With “Mycobacterium avium subsp. paratuberculosis elongation factor Tu (from UniProt Q73SD1 1-396) (natural protein)”, the Kd amounted to 3.1 µM.
